# Measurements as given in article PMC9477392 (2022).
# T1: Atox1 (Homo sapiens, UniProt O00244)
# T1 chain: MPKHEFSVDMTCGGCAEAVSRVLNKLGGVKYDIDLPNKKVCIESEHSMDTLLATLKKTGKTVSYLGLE
# Molecular target: T1, Atox1
# Assay: SPR
binder,measurement,value
"Memo1 (protein, Cu(I)-loaded Atox1) MSNRVVCREASHAGSWYTASGPQLNAQLEGWLSQVQSTKRPARAIIAPHAGYTYCGSCAAHAYKQVDPSITRRIFILGPSHHVPLSRCALSSVDIYRTPLYDLRIDQKIYGELWKTGMFERMSLQTDEDEHSIEMHLPYTAKAMESHKDEFTIIPVLVGALSESKEQEFGKLFSKYLADPSNLFVVSSDFCHWGQRFRYSYYDESQGEIYRSIEHLDKMGMSIIEQLDPVSFSNYLKKYHNTICGRHPIGVLLNAITELQKNGMNMSFSFLNYAQSSQCRNWQDSSVSYAAGALTVH",Kd,210 nM
